Key:
HUVECs = assay: HUVEC migration, Matrigel chemoinvasion assay; type: cell-based, human; settings: 1 uM S1P, 1 ug/ml antibody, 6 hr
Method: FIG. 5. FIG. 5 has two panels, A and B. In panel A, S1P is shown to promote neovascularization through induction of HUVECs tube formation and migration, which is reduced by SPHINGOMAB. […] The number of cells that migrated to the Matrigel membrane were counted in five independent fields.
Experiments were performed as described by Visentin et al. (Cancer Cell 2006 March; 9(3):225-38).

[1] = test system: neovascularization of VEGF- or bFGF-containing Matrigel plugs; assay: In vivo Matrigel plug assay, bFGF- or VEGF-supplemented plugs, neovascularization; set-up: species or system mouse; settings: 25 mg/kg i.p. every 48 hrs, 10 days
Method: Endogenous S1P from the blood and surrounding tissue could supply a wound with pro-angiogenic stimuli. The ability of SPHINGOMAB to reduce endogenous S1P in a wound was investigated. Optimally stimulated plugs (Matrigel supplemented with 0.5 μg/mL bFGF or […] VEGF) were implanted into mice. Mice received i.p. injections of 25 mg/kg SPHINGOMAB or saline every 48 hrs starting 1 day prior to Matrigel implantation. Each treatment group (Matrigel, Matrigel plus GF or Matrigel plus GF and administered SPHINGOMAB) consisted of a minimum of 6 mice. After 10 days, the mice were treated with heparin, injected with Isolectin B4-FITC, the plugs excised, embedded in OCT freezing medium and sectioned.

[2] = test system: murine cardiac fibroblasts; assay: S1P-stimulated cardiac fibroblast migration, scratch assay; type: cell-based, mouse; settings: 1 ug/mL antibody, 12-24 hr
Method: FIG. 7. […] See Example 7, below, for experimental details. […] In these experiments, fibroblasts were serum-starved and then treated with 0, 0.1, 0.5, or 1 μM S1P+/−1 μg/mL SPHINGOMAB for 12-24 hr. […] SPHINGOMAB neutralized each of these S1P effects. SPHINGOMAB reduced perivascular fibrosis in vivo in a murine model of a permanent myocardial infarction (E).
S1P makes profound contributions to wound healing by activating fibroblast migration, proliferation and collagen production; SPHINGOMAB neutralizes these effects. Several studies using multiple types of fibroblasts confirm S1P's ability to promote wound healing: 1) S1P increased Swiss-3T3 fibroblast proliferation as measured by ^3H-thymidine incorporation using standard methods (FIG. 7A); 2) S1P promoted the migration of cardiac fibroblasts in a standard scratch wound healing assay. […] In each of these assays, SPHINGOMAB neutralized S1P's. It is anticipated that ocular fibroblasts would respond similarly to S1P and SPHINGOMAB.

[3] = test system: CNV lesions after laser rupture of Bruch's membrane; assay: CNV animal model of AMD, murine vs humanized mAbs (Example 17); type: in vivo, mouse; settings: 0.5 ug intravitreal Day 0 and Day 6, 14 days post laser
Method: The humanized antibody variants and the murine antibody were compared for their ability to inhibit neo-vascularization in the CNV animal model of AMD as shown in FIG. 13. […] Mice were sacrificed 14 days post laser surgery. Control mice were treated with aqueous buffer (PBS) or an isotype-matched non-specific antibody. Three of the humanized variants inhibited angiogenesis essentially equivalently to the murine antibody as assessed by measurement of CNV area. CNV lesion volumes are represented as means±SEM. […]
The morphometric and volumetric CNV lesions were measured as follows. […]
Captured digital images were evaluated morphometrically using ImageJ software (Research Services Branch, National Institutes of Health, Bethesda, Md.). Images were split into separate RGB channels for analysis of the red and green channels as follows: 1) a calibration for the specific objective and microscope was applied to set the pixel-to-length ratio; 2) a threshold was applied using the Otsu algorithm; 3) images will be made binary; 4) a region-of-interest (ROI) was outlined to include the entire lesion area; 5) a particle analysis was performed to quantify the pixel area above the threshold level within the ROI. […]

B1: LT1002: murine anti-S1P monoclonal antibody, IgG1 kappa, hybridoma clone 306D326.26 (antibody, listed as Mus sp., V domains shown)
VH: QAHLQQSDAELVKPGASVKISCKVSGFIFIDHTIHWMKQRPEQGLEWIGCISPRHDITKYNEMFRGKATLTADKSSTTAYIQVNSLTFEDSAVYFCARGGFYGSTIWFDFWGQGTTLTVS
VL: ETTVTQSPASLSMAIGEKVTIRCITTTDIDDDMNWFQQKPGEPPNLLISEGNILRPGVPSRFSSSGYGTDFLFTIENMLSEDVADYYCLQSDNLPFTFGSGTKLEIK
B1 was tested, and the “S1P-induced HUVEC tube formation and migration” value (HUVECs) was “reduced”, the “decrease in neovascularization of VEGF-containing plugs vs saline-treated animals” value [1] was 5 fold and the “decrease in neovascularization of bFGF-containing plugs vs saline-treated animals” value [1] was 8.5 fold. The “S1P-promoted cardiac fibroblast migration” value [2] was “neutralized” and the “Percent inhibition of lesion size” value [3] was “approximately 80%”.

Source: patent US8444970B2, “Compositions and methods for treating ocular diseases and conditions” (Lpath, Inc., priority 2006, dated 2013)
